Data from IntAct's records for PubMed 31477895.

B1: Ubiquitin carboxyl-terminal hydrolase 15 (Homo sapiens), Q9Y4E8 (parent)
chain: MAEGGAADLDTQRSDIATLLKTSLRKGDTWYLVDSRWFKQWKKYVGFDSWDKYQMGDQNVYPGPIDNSGLLKDGDAQSLKEHLIDELDYILLPTEGWNKLVSWYTLMEGQEPIARKVVEQGMFVKHCKVEVYLTELKLCENGNMNNVVTRRFSKADTIDTIEKEIRKIFSIPDEKETRLWNKYMSNTFEPLNKPDSTIQDAGLYQGQVLVIEQKNEDGTWPRGPSTPKSPGASNFSTLPKISPSSLSNNYNNMNNRNVKNSNYCLPSYTAYKNYDYSEPGRNNEQPGLCGLSNLGNTCFMNSAIQCLSNTPPLTEYFLNDKYQEELNFDNPLGMRGEIAKSYAELIKQMWSGKFSYVTPRAFKTQVGRFAPQFSGYQQQDCQELLAFLLDGLHEDLNRIRKKPYIQLKDADGRPDKVVAEEAWENHLKRNDSIIVDIFHGLFKSTLVCPECAKISVTFDPFCYLTLPLPMKKERTLEVYLVRMDPLTKPMQYKVVVPKIGNILDLCTALSALSGIPADKMIVTDIYNHRFHRIFAMDENLSSIMERDDIYVFEININRTEDTEHVIIPVCLREKFRHSSYTHHTGSSLFGQPFLMAVPRNNTEDKLYNLLLLRMCRYVKISTETEETEGSLHCCKDQNINGNGPNGIHEEGSPSEMETDEPDDESSQDQELPSENENSQSEDSVGGDNDSENGLCTEDTCKGQLTGHKKRLFTFQFNNLGNTDINYIKDDTRHIRFDDRQLRLDERSFLALDWDPDLKKRYFDENAAEDFEKHESVEYKPPKKPFVKLKDCIELFTTKEKLGAEDPWYCPNCKEHQQATKKLDLWSLPPVLVVHLKRFSYSRYMRDKLDTLVDFPINDLDMSEFLINPNAGPCRYNLIAVSNHYGGMGGGHYTAFAKNKDDGKWYYFDDSSVSTASEDQIVSKAAYVLFYQRQDTFSGTGFFPLDRETKGASAATGIPLESDEDSNDNDNDIENENCMHTN

Variants of: B1
Details: with syvn1_human SYVN1, Q86TM6
syvn1_human SYVN1, Q86TM6, sequence (Q86TM6 whole entry): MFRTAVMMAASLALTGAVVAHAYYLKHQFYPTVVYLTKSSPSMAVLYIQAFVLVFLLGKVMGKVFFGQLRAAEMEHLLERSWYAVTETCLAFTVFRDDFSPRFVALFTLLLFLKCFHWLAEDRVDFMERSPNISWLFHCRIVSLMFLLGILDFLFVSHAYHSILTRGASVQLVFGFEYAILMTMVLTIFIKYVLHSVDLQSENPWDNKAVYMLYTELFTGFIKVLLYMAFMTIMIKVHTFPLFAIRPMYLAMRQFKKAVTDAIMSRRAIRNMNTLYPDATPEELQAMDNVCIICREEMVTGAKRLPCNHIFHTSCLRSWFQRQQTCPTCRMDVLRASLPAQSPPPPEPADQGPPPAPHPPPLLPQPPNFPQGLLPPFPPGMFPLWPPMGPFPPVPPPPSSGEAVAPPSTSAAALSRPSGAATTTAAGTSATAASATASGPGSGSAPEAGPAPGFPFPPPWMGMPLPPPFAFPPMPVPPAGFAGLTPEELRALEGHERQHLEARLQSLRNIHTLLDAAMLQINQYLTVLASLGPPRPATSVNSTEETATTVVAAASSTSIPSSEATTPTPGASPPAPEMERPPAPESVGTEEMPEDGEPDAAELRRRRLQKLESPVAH
For K21R, the “effect of a mutation on the interaction” value was “with no effect”. In the case of K154R, the “effect of a mutation on the interaction” value is reported as “with no effect”. For K228R, the “effect of a mutation on the interaction” value was “with no effect”.
